± gives the half width of the 95% confidence interval.
What was measured:
[1] = folding stability dG unfold (combined trypsin and chymotrypsin); higher = more stable
Outline: (§1)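 K50 was inferred by Bayesian fitting of sequencing counts obtained after protease digestion of designed mini-proteins. Unfolding free energy was derived by comparison with a sequence-predicted unfolded-state K50 and a shared folded-state K50, for each protease or both combined. The mini-proteins were under 80 residues, had no cysteine, were carried in a PA-tagged cDNA display construct, and were kept only if AlphaFold2 dimer inter-PAE exceeded 15.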

[2] = folding stability dG unfold from chymotrypsin proteolysis; higher = more stable
Outline: as §1

[3] = folding stability dG unfold from trypsin proteolysis; higher = more stable
Outline: as §1

Sequence | folding stability dG unfold [1] | folding stability dG unfold [2] | folding stability dG unfold [3]
SAGGATLTEPETTVEVRFEKLPDGTVIRTTTTITPEGVTTTTEPVPVPPSPGASSEEELEALRAAAAAASAG [r5_272_JUSTAS] | 1.6 ± 0.18 kcal/mol | 1.51 ± 0.037 kcal/mol | 1.75 ± 0.037 kcal/mol
SAGGATRIRVLATNASGEKVELDIPQAIADAIAEALKQGKPIPPGPASVIAAFATSNGYDFEIVDISSAGGS [r8_159_TrMRF] | 2.85 ± 0.093 kcal/mol | 3.106 ± 0.031 kcal/mol | 2.02 ± 0.062 kcal/mol
SAGGAVEITDISSKTVTEPVTFENGTVVPQERTAGTVTTTENGTPVATVPFTSEEELEEAIARALAESAGGS [r8_21_JUSTAS] | 0.869 ± 0.1 kcal/mol | 1.24 ± 0.034 kcal/mol | -0.276 ± 0.22 kcal/mol
SAGGAVEKNSNNPNTSPEKAKEIAEEIAEELKKEGHVPKSISFSEKENGKLTATIKIEDGKELTIGLSAGGS [r8_485_JUSTAS] | < -1 kcal/mol | -0.467 ± 0.17 kcal/mol | -0.343 ± 0.16 kcal/mol
SAGGAVYRNPATGEWYEPGMTEEEREARARAALPPPTVTITVTVTVVFEDNGTTVTATATVTLTVEGSAGGS [r16_387_TrROS_Hall] | 3.44 ± 0.1 kcal/mol | 3.83 ± 0.12 kcal/mol | 2.97 ± 0.11 kcal/mol
SAGGDALKGLPPGAKVKVERVNGKLVVVVEKVEVKPPPKVTLTLPPGWKLTRLELTEDGTLKAELEPSAGGS [r16_103_TrROS_Hall] | 1.79 ± 0.23 kcal/mol | 2.13 ± 0.068 kcal/mol | 1.4 ± 0.053 kcal/mol
SAGGDATIVLTDFPEDDPEARIRTARNLYRELKAAGPPLRINILTDTPLGREVADYLESEGIEVGLGSAGGS [r16_450_TrMRF] | -0.33 ± 0.2 kcal/mol | -0.206 ± 0.26 kcal/mol | -0.828 ± 0.43 kcal/mol
SAGGDDKWKIEIDIQPHDDYWVITARIRDPNGKERERMFMMPPDNIKKILNELPPEIEDIEVHRVPNSAGGS [r16_298_TrROS] | 2.53 ± 0.17 kcal/mol | 2.72 ± 0.045 kcal/mol | 2.11 ± 0.074 kcal/mol
SAGGDEIAKEIANHAREQGYKVEVKVERDEDGMVKIDVEMSMPNGRRVTFSITINPDGIEIQSIEVTPSAGG [r13_203_TrROS] | 3.97 ± 0.15 kcal/mol | 4.41 ± 0.067 kcal/mol | 2.65 ± 0.12 kcal/mol
SAGGDKDNKPPIPTKTITFMLPYDSPEDAKDYAEEIARELFQEEGIPIKVTVQYNPESGWVWVTITIYSAGG [r13_517_TrROS] | 4.32 ± 0.12 kcal/mol | 4.57 ± 0.075 kcal/mol | 3.49 ± 0.1 kcal/mol
SAGGDLEAKPFEITFVIKAKPFPTPDGRLVETPEKVFKLKVLVVRGPNETRLFVFDEDGNLLFTSNLSAGGS [r16_92_TrMRF] | 3.39 ± 0.064 kcal/mol | 3.888 ± 0.022 kcal/mol | 2.37 ± 0.051 kcal/mol
SAGGDLIERVAKELMEKFPMKPGEPRPITIEIPYPDGYRIKVDIPVRVNPDNGEFRFKFDIKEIEPWSAGGS [r16_634_TrROS] | 1.25 ± 0.13 kcal/mol | 1.43 ± 0.16 kcal/mol | 1.02 ± 0.052 kcal/mol
SAGGDPDEIKKVIITARIYRPDPDGNIHTATIPIIIEGPLDEVIEKVAKEIEEAFGTKIVEITVEKGSAGGS [r16_511_TrMRF] | 1.36 ± 0.14 kcal/mol | 1.2 ± 0.07 kcal/mol | 1.54 ± 0.047 kcal/mol
SAGGDPETPTTITAPVDPATGTTTWVVNDGSSTSTIPSSLSLEELKKLGLTKAEPLPDGTLRFTILASAGGS [r8_382_JUSTAS] | 0.495 ± 0.053 kcal/mol | 0.494 ± 0.081 kcal/mol | 0.289 ± 0.022 kcal/mol
SAGGDPGWVRVTAEIELDGKNLKIEWWYMPNGNYYYNIEFPNGKEIEIMIPMEPGDVEEFAEYIAKKLSAGG [r13_296_TrROS] | 2.66 ± 0.11 kcal/mol | 2.838 ± 0.028 kcal/mol | 2.32 ± 0.069 kcal/mol
SAGGDPSATPVVVEFTLPDGARAVATTFPSGVVVARVFNPVTGRTTEVTVTVVPESATATVTVRPNPDSAGG [r13_822_TrMRF] | 1.02 ± 0.053 kcal/mol | 1.13 ± 0.067 kcal/mol | 0.762 ± 0.027 kcal/mol
SAGGDVTIEWFPMSEEEMKKMMEEMPPNTIMIPFPGNGYFIPVRVPDDPEEADKIAEEIRKWLEQLPSAGGS [r16_311_TrROS] | 1.62 ± 0.063 kcal/mol | 1.44 ± 0.024 kcal/mol | 1.81 ± 0.057 kcal/mol
SAGGDVVRVRVRLRRFEIVGDRPVYRPVDIDILAEADGDPEAARRRAEREARRLAEEYGAEIEDIELFPSAG [r5_497_TrMRF] | 2.4 ± 0.083 kcal/mol | 2.57 ± 0.04 kcal/mol | 2.15 ± 0.026 kcal/mol

— the supplement of paper PMC12764529
